# Read-outs that look alike come from different tables or passages of the source.
# B1: Human Prx2, native, reduced (thiol cysteines) (enzyme, UniProt P32119 1-198, looked up)
# chain: MASGNARIGKPAPDFKATAVVDGAFKEVKLSDYKGKYVVLFFYPLDFTFVCPTEIIAFSNRAEDFRKLGCEVLGVSVDSQFTHLAWINTPRKEGGLGPLNIPLLADVTRRLSEDYGVLKTDEGIAYRGLFIIDGKGVLRQITVNDLPVGRSVDEALRLVQAFQYTDEHGEVCPAGWKPGSDTIKPNVDDSKEYFSKHN
# modifications: cysteines reduced (thiol)
# B2: Human Prx2, overoxidized (enzyme, UniProt P32119 1-198, looked up)
# chain: B1 chain
# modifications: overoxidized (so in the source)
# Key:
# [1] = biological target: the molecule itself; test: SEC
# [2] = biological target: the molecule itself; test: SEC; remark: listed apart in the source
Protein,stoichiometry N [1],stoichiometry N [2]
B1,10,
B2,,10

# Source: PMC9123601 (Archives of biochemistry and biophysics, 2015)
